This is an account of results in patent publication US20100158922A1 (published 2010).

The target of this experiment is T1, recombinant human IFNγ (human, UniProt P01579 24-166).
T1 chain: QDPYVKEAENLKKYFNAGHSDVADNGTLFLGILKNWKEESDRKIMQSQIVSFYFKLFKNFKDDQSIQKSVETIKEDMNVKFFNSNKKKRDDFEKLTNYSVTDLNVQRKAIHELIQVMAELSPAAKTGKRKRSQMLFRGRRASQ
The experiment in a line: SPR (Biacore). (Surface plasmon resonance follows binding to a sensor surface in real time, without labels.)

B1: NI-0501 (antibody, V domains shown)
VH: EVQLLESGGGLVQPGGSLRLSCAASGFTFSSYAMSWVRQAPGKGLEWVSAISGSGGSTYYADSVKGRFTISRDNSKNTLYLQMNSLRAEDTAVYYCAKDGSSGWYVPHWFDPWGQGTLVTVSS
VL: NFMLTQPHSVSESPGKTVTISCTRSSGSIASNYVQWYQQRPGSSPTTVIYEDNQRPSGVPDRFSGSIDSSSNSASLTISGLKTEDEADYYCQSYDGSNRWMFGGGTKLTVL
B1: the equilibrium dissociation constant (Kd) (in general, the equilibrium constant for the complex coming apart) came to 0.732 nM.
